How the values were obtained:
[1] = molecular target: T1, Estrogen receptor beta (ERβ) (UniProt Q92731 Q92731:1-530); test: competition; free competitor at 4:1 over ERβ, 360 nM ERβ, 56 mM KCl, 5 min; attributed to non-specific binding; details: chain copies: 2
Description: (§1) In this study, excess unmodified DNA competitor (i.e., wtERE and scrDNA, are used as strong and weak competitors, respectively) was pre-incubated with the ERβ at room temperature for 20 minutes to allow for complex formation (molar ratio of ERβ:dsDNA is 1:4), followed by the addition to the complementary mixture of v1-v2-AuNPs in 56 mM KCl, with final ERβ concentration of 360 nM. In the presence of strong competitor (wtERE), limited amount of ERβ bound to the ERE anchored on the AuNPs surface, leading to extensive particle aggregation in salt solution. […]
(§2) The aggregation state of the AuNPs was quantified using UV-Vis absorption spectrum as indicated by the shift of LSPR peak at 526 nm wavelength to a longer wavelength (e.g. 650 nm). The UV-Vis absorbance ratio at 650 nm to that at 526 nm, i.e., A650/A526 is indicative of the particle aggregation degree where a higher ratio is directly related to a larger extent of aggregation. In this study, the deviation percentage (i.e., [(X−Y)/Y]*100%) was calculated based on the difference in aggregation ratio of AuNP samples (measure as A650/A526) with competitors (denoted as X) relative to that without competitor (denoted as Y) at 5 minutes after mixing in the 56 mM KCl-containing protein binding buffer. A 9.0% of deviation was recorded for the scrambled DNA sequence (scrDNA). […]

[2] = molecular target: T1, Estrogen receptor beta (ERβ); test: competition; free competitor at 4:1 over ERβ, 360 nM ERβ, 56 mM KCl, 5 min; strong competitor; details: chain copies: 2
Description: as §1, §2

T1 sequence (Q92731 whole entry, one chain of several): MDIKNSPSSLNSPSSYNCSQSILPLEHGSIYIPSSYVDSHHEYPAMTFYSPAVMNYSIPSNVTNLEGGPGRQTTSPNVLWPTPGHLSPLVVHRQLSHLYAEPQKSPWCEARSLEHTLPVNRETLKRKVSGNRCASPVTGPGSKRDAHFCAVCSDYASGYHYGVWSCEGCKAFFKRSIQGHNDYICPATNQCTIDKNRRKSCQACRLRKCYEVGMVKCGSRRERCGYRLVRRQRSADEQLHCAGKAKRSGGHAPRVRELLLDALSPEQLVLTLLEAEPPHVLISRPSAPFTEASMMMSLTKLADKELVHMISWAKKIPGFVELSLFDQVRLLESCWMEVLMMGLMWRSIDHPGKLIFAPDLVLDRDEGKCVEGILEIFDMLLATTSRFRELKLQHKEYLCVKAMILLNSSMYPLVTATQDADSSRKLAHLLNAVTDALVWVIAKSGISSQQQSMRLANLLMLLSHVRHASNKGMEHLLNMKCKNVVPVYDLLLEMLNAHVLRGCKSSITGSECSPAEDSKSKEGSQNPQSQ

Row | Binder | binding signal [1] | binding signal [2]
1 | scrDNA competitor (free) (dsDNA) DNA 1: GTCCAAAGTCAATCGCCAGCACGATGATCAAAGT DNA 2: ACTTTGATCATCGTGCTGGCGATTGACTTTGGAC | 9 % deviation of aggregation ratio | 
2 | wtERE competitor (free) (dsDNA) DNA 1: GTCCAAAGTCAGGTCACAGTGACCTGATCAAAGT DNA 2: ACTTTGATCAGGTCACTGTGACCTGACTTTGGAC |  | 35 % deviation of aggregation ratio
